Experimental data taken from US20140271457A1 (AbbVie / Abbott, published 2014).
Residue numbers refer to the chain shown, from its start.

B1: DVD2789 (bispecific antibody, IgG1)
VH: EVTLRESGPGLVKPTQTLTLTCTLYGFSLSTSDMGVDWIRQPPGKGLEWLAHIWWDDVKRYNPALKSRLTISKDTSKNQVVLKLTSVDPVDTATYYCARTVSSGYIYYAMDYWGQGTLVTVSSASTKGPEVQLVQSGAEVKKPGASVKVSCKASGYTFANYGIIWVRQAPGQGLEWMGWINTYTGKPTYAQKFQGRVTMTTDTSTSTAYMELSSLRSEDTAVYYCARKLFTTMDVTDNAMDYWGQGTTVTVSS
VL: DIQMTQSPSSLSASVGDRVTISCRASQDIRNYLNWYQQKPGKAPKLLIFYTSKLHSGVPSRFSGSGSGTDYTLTISSLQPEDIATYYCQQGLTPPLTFGGGTKVEIKRTVAAPDIQMTQSPSSLSASVGDRVTITCRASQDISQYLNWYQQKPGKAPKLLIYYTSRLQSGVPSRFSGSGSGTDFTLTISSLQPEDFATYFCQQGNTWPPTFGQGTKLEIKR
B2: DVD3016 (bispecific antibody, IgG1)
VH: B1 VH with A159N, T231N, M233V, D234A
VL: DIQMTQSPSSLSASVGDRVTISCRASQDIRNYLNWYQQKPGKAPKLLIFYTSKLHSGVPSRFSGSGSGTDYTLTISSLQPEDIATYYCQQGLTPPLTFGGGTKVEIKRTVAAPSVFIFPPDIQMTQSPSSLSASVGDRVTITCRASQDIENYLNWYQQKPGKAPKLLIYYTSRLQSGVPSRFSGSGSGTDFTLTISSLQPEDFATYFCQQGNTQPPTFGQGTKLEIKR
B3: DVD2791 (bispecific antibody, IgG1)
VH: B1 VH
VL: B2 VL with E150S, N151Q, Q214W
B4: DVD2792 (bispecific antibody, IgG1)
VH: EVTLRESGPGLVKPTQTLTLTCTLYGFSLSTSDMGVDWIRQPPGKGLEWLAHIWWDDVKRYNPALKSRLTISKDTSKNQVVLKLTSVDPVDTATYYCARTVSSGYIYYAMDYWGQGTLVTVSSASTKGPSVFPLAPEVQLVQSGAEVKKPGASVKVSCKASGYTFANYGIIWVRQAPGQGLEWMGWINTYTGKPTYAQKFQGRVTMTTDTSTSTAYMELSSLRSEDTAVYYCARKLFTTMDVTDNAMDYWGQGTTVTVSS
VL: B1 VL
B5: DVD3017 (bispecific antibody, IgG1)
VH: B4 VH with A166N, T238N, M240V, D241A
VL: B1 VL with S143E, Q144N, W207Q
B6: DVD3014 (bispecific antibody, IgG1)
VH: B1 VH with A159N, T231N, M233V, D234A
VL: B1 VL with S143E, Q144N, W207Q
B7: DVD3011 (bispecific antibody, IgG1)
VH: EVQLVQSGAEVKKPGASVKVSCKASGYTFNNYGIIWVRQAPGQGLEWMGWINTYTGKPTYAQKFQGRVTMTTDTSTSTAYMELSSLRSEDTAVYYCARKLFNTVAVTDNAMDYWGQGTTVTVSSASTKGPEVTLRESGPGLVKPTQTLTLTCTLYGFSLSTSDMGVDWIRQPPGKGLEWLAHIWWDDVKRYNPALKSRLTISKDTSKNQVVLKLTSVDPVDTATYYCARTVSSGYIYYAMDYWGQGTLVTVSS
VL: DIQMTQSPSSLSASVGDRVTITCRASQDIENYLNWYQQKPGKAPKLLIYYTSRLQSGVPSRFSGSGSGTDFTLTISSLQPEDFATYFCQQGNTQPPTFGQGTKLEIKRTVAAPSVFIFPPDIQMTQSPSSLSASVGDRVTISCRASQDIRNYLNWYQQKPGKAPKLLIFYTSKLHSGVPSRFSGSGSGTDYTLTISSLQPEDIATYYCQQGLTPPLTFGGGTKVEIKR
B8: DVD3012 (bispecific antibody, IgG1)
VH: EVQLVQSGAEVKKPGASVKVSCKASGYTFNNYGIIWVRQAPGQGLEWMGWINTYTGKPTYAQKFQGRVTMTTDTSTSTAYMELSSLRSEDTAVYYCARKLFNTVAVTDNAMDYWGQGTTVTVSSASTKGPSVFPLAPEVTLRESGPGLVKPTQTLTLTCTLYGFSLSTSDMGVDWIRQPPGKGLEWLAHIWWDDVKRYNPALKSRLTISKDTSKNQVVLKLTSVDPVDTATYYCARTVSSGYIYYAMDYWGQGTLVTVSS
VL: DIQMTQSPSSLSASVGDRVTITCRASQDIENYLNWYQQKPGKAPKLLIYYTSRLQSGVPSRFSGSGSGTDFTLTISSLQPEDFATYFCQQGNTQPPTFGQGTKLEIKRTVAAPDIQMTQSPSSLSASVGDRVTISCRASQDIRNYLNWYQQKPGKAPKLLIFYTSKLHSGVPSRFSGSGSGTDYTLTISSLQPEDIATYYCQQGLTPPLTFGGGTKVEIKR
B9: DVD3089 (bispecific antibody, IgG1)
VH: EVQLVQSGAEVKKPGASVKVSCKASGYTFTTYGVSWVRQAPGQGLEWMGEIYPGNYNTYYNEKFRGRVTMTTDTSTSTAYMELRSLRSDDTAVYYCARWRTSYFSDYGYFDYWGQGTTVTVSSASTKGPEVQLVESGGGLVQPGGSLRLSCAASGFTFSNYGVTWVRQAPGKGLEWVSMIWADGSTHYASSVKGRFTISRDNSKNTLYLQMNSLRAEDTAVYYCAREWQHGPVAYWGQGTLVTVSS
VL: DVVMTQSPLSLPVTLGQPASISCRSSQSLVHSHGNTYLHWYQQRPGQSPRLLIYTVSNRFSGVPDRFSGSGSGTDFTLKISRVEAEDVGVYYCSQSTHVPYTFGGGTKVEIKRTVAAPDIQMTQSPSSLSASVGDRVTITCRASQLVSSAVAWYQQKPGKAPKLLIYWASARHTGVPSRFSGSGSGTDFTLTISSLQPEDFATYYCQQHYKTPFTFGQGTKLEIKR
B10: DVD3091 (bispecific antibody, IgG1)
VH: B9 VH
VL: DVVMTQSPLSLPVTLGQPASISCRSSQSLVHSHGNTYLHWYQQRPGQSPRLLIYTVSNRFSGVPDRFSGSGSGTDFTLKISRVEAEDVGVYYCSQSTHVPYTFGGGTKVEIKRTVAAPSVFIFPPDIQMTQSPSSLSASVGDRVTITCRASQLVSSAVAWYQQKPGKAPKLLIYWASARHTGVPSRFSGSGSGTDFTLTISSLQPEDFATYYCQQHYKTPFTFGQGTKLEIKR
B11: DVD2788 (bispecific antibody, IgG1)
VH: EVTLRESGPGLVKPTQTLTLTCTLYGFSLSTSDMGVDWIRQPPGKGLEWLAHIWWDDVKRYNPALKSRLTISKDTSKNQVVLKLTSVDPVDTATYYCARTVSSGYIYYAMDYWGQGTLVTVSSGGGGSGGGGSEVQLVQSGAEVKKPGASVKVSCKASGYTFANYGIIWVRQAPGQGLEWMGWINTYTGKPTYAQKFQGRVTMTTDTSTSTAYMELSSLRSEDTAVYYCARKLFTTMDVTDNAMDYWGQGTTVTVSS
VL: DIQMTQSPSSLSASVGDRVTISCRASQDIRNYLNWYQQKPGKAPKLLIFYTSKLHSGVPSRFSGSGSGTDYTLTISSLQPEDIATYYCQQGLTPPLTFGGGTKVEIKRGGSGGGGSGDIQMTQSPSSLSASVGDRVTITCRASQDISQYLNWYQQKPGKAPKLLIYYTSRLQSGVPSRFSGSGSGTDFTLTISSLQPEDFATYFCQQGNTWPPTFGQGTKLEIKR
B12: DVD3013 (bispecific antibody, IgG1)
VH: B11 VH with A163N, T235N, M237V, D238A
VL: B11 VL with S147E, Q148N, W211Q
B13: DVD3088 (bispecific antibody, IgG1)
VH: EVQLVQSGAEVKKPGASVKVSCKASGYTFTTYGVSWVRQAPGQGLEWMGEIYPGNYNTYYNEKFRGRVTMTTDTSTSTAYMELRSLRSDDTAVYYCARWRTSYFSDYGYFDYWGQGTTVTVSSGGGGSGGGGSEVQLVESGGGLVQPGGSLRLSCAASGFTFSNYGVTWVRQAPGKGLEWVSMIWADGSTHYASSVKGRFTISRDNSKNTLYLQMNSLRAEDTAVYYCAREWQHGPVAYWGQGTLVTVSS
VL: DVVMTQSPLSLPVTLGQPASISCRSSQSLVHSHGNTYLHWYQQRPGQSPRLLIYTVSNRFSGVPDRFSGSGSGTDFTLKISRVEAEDVGVYYCSQSTHVPYTFGGGTKVEIKRGGSGGGGSGDIQMTQSPSSLSASVGDRVTITCRASQLVSSAVAWYQQKPGKAPKLLIYWASARHTGVPSRFSGSGSGTDFTLTISSLQPEDFATYYCQQHYKTPFTFGQGTKLEIKR

What follows are binders tested against Recombinant Human TNF-α/TNFSF1A (human, UniProt P01375 77-233) (assay: cell-based or functional assay).
Sequence of Recombinant Human TNF-α/TNFSF1A (P01375 77-233 limits assumed): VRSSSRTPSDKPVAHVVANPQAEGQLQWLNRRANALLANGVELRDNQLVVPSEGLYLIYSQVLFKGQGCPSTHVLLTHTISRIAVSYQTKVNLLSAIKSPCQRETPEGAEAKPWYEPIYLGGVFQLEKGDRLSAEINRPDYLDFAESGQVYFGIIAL

B1 and B2 are within 1.5-fold of each other in “C-Terminal VD huTNFα Neutralization Assay IC50” value: 186 pM for the first, 148 pM for the second.

Going from B3 to B4, the “C-Terminal VD huTNFα Neutralization Assay IC50” value rises from 64 pM to 136 pM (2.1-fold).

Going from B5 to B6, the “C-Terminal VD huTNFα Neutralization Assay IC50” value rises from 234 pM to 490 pM (2.1-fold).

First: B9
Second: B10
The “C-Terminal VD huTNFα Neutralization Assay IC50” value of the first is 2.7-fold higher: 520 pM for the first, 192 pM for the second.

B11 and B12 are within 1.5-fold of each other in “C-Terminal VD huTNFα Neutralization Assay IC50” value: 230 pM for the first, 229 pM for the second.

In the case of B13, the “C-Terminal VD huTNFα Neutralization Assay IC50” value is reported as 472 pM.

B7 and B8 are within 1.5-fold of each other in “N-Terminal VD huTNFα Neutralization Assay IC50” value: 24 pM for the first, 34 pM for the second.
